Data as given in patent publication US20100113575A1.
Values belong to the substance of their own block, whether it stands above or below them.

Columns and labels:
[1] = biological target: autoprocessed, secreted PCSK9-152FLAG-V5/His (human) (UniProt Q8NBP7); test: TR-FRET on cell media, 50,000 cells per well
LDLR = LDLR (UniProt P01130); test: cell-based or functional assay

window of the TR-FRET ratio against PCSK9-152FLAG-V5/His-S386A [1]: 3 fold
Substance: Eu+3-labeled anti-FLAG M1 antibody

activity in PCSK9-dependent LDL uptake against processed PCSK9 (LDLR): 20 fold
Substance: purified nonprocessed D186A PCSK9 (from UniProt Q8NBP7 31-692) (enzyme)

EC50, inhibition of diI-LDL uptake in HEK293 cells (LDLR): 0.189 µM | fold decrease in potency in the PCSK9-dependent LDL-uptake assay against WT PCSK9 (LDLR): 4 fold
Substance: purified processed D186A PCSK9 (with retained pro domain) (from UniProt A8T644 31-152; Q8NBP7 153-692) (enzyme)
